Among the data in patent US5702926 are activity values, retold here.

The series deals with Bca DNA polymerase. To be noted: unmodified dCTP; 39 units/µl with dCTPalphaS, 40-50 with dCTPalphaBH3; 4 mM Mg, 60 C.

Turning to activated calf thymus DNA, the activity came to 152 units/µl.
